Measured values reported in article PMC9482650, “Quantitative fragmentomics allow affinity mapping of interactomes” (Nature Communications, 2022).

T1: PREX2_2, Q70Z35
T1 sequence (Q70Z35 672-764, limits assumed, looked up): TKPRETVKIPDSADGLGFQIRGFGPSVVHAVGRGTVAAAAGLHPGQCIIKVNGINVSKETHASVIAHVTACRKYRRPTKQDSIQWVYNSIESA

T2: NHERF1_1, O14745
T2 sequence (O14745 9-104, limits assumed, looked up): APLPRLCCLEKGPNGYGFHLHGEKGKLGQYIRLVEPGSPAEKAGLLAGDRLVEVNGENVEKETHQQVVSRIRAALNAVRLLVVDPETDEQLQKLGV

T3: PARD6G, Q9BYG4
T3 sequence (Q9BYG4 153-261, limits assumed, looked up): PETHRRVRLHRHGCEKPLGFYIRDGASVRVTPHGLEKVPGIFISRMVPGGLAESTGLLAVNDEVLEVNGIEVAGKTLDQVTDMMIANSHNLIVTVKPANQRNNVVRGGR

T4: PDZD4, Q76G19
T4 sequence (Q76G19 125-224, limits assumed, looked up): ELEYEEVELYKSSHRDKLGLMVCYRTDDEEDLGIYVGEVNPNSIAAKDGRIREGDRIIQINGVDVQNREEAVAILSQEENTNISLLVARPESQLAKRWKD

T5: PDLIM3, Q53GG5
T5 sequence (Q53GG5 1-94, limits assumed, looked up): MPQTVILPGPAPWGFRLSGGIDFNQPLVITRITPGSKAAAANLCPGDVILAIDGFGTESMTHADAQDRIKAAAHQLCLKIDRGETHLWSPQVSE

T6: APBA3_2, O96018
T6 sequence (O96018 480-570, limits assumed, looked up): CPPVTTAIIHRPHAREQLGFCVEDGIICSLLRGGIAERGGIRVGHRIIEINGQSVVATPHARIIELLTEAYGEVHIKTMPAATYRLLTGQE

T7: TJP3_2, O95049
T7 sequence (O95049 190-282, limits assumed, looked up): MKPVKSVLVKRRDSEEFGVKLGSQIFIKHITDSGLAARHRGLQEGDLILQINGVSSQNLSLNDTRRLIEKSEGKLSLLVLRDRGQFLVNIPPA

T8: PDZD7_2, Q9H5P4
T8 sequence (Q9H5P4 205-303, limits assumed, looked up): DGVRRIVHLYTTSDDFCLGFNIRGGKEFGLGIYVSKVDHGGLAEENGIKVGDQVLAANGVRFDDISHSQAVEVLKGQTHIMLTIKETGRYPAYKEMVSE

T9: SHANK2, Q9UPX8
T9 sequence (Q9UPX8 621-730, limits assumed, looked up): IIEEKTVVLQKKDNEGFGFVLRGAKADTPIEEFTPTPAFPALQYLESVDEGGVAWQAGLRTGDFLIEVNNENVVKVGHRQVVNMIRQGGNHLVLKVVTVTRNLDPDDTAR

T10: MPDZ_6, O75970
T10 sequence (O75970 1003-1099, limits assumed, looked up): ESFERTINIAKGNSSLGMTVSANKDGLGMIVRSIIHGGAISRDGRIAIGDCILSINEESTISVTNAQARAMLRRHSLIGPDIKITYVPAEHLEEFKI


How the values were obtained:
Experiment in all cases: holdup assay
Parameters in all cases: key: below the threshold = too weak to quantify, mostly under pKd 3.1 to 4
PREX2_2, Q70Z35 = biological target: T1, PREX2_2, Q70Z35
NHERF1_1, O14745 = biological target: T2, NHERF1_1, O14745
PARD6G, Q9BYG4 = biological target: T3, PARD6G, Q9BYG4
GRIP2_2, Q9C0E4 = biological target: GRIP2_2, Q9C0E4
GRIP2_2, Q9C0E4, sequence (Q9C0E4 137-245): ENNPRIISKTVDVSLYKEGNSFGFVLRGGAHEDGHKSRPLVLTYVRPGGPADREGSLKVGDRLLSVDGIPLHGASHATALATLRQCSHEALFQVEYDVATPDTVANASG

RIMS1, Q86UR5 = biological target: RIMS1, Q86UR5
RIMS1, Q86UR5, sequence (Q86UR5 584-692): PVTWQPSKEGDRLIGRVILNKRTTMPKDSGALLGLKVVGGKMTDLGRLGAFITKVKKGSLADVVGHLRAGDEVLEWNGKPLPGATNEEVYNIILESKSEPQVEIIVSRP

PTPN13_2, Q12923 = biological target: PTPN13_2, Q12923
PTPN13_2, Q12923, sequence (Q12923 1363-1462): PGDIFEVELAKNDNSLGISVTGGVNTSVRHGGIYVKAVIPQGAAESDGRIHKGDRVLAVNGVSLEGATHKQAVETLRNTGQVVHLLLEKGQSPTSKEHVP

RGS3, P49796-9 = biological target: RGS3, P49796-9
RGS3, P49796-9, sequence (P49796 other isoform, or with tags, fused parts or gaps): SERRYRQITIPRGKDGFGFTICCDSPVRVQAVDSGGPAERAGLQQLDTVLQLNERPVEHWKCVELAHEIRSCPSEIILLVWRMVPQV

PDZD4, Q76G19 = biological target: T4, PDZD4, Q76G19
RIMS2, Q9UQ26 = biological target: RIMS2, Q9UQ26
RIMS2, Q9UQ26, sequence (Q9UQ26 637-758): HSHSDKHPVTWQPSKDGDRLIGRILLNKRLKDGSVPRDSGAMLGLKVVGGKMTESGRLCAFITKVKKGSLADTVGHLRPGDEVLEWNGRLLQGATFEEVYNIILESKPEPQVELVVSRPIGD

PDLIM3, Q53GG5 = biological target: T5, PDLIM3, Q53GG5
APBA3_2, O96018 = biological target: T6, APBA3_2, O96018
TJP3_2, O95049 = biological target: T7, TJP3_2, O95049
PDZD7_2, Q9H5P4 = biological target: T8, PDZD7_2, Q9H5P4
SHANK2, Q9UPX8 = biological target: T9, SHANK2, Q9UPX8
MPDZ_6, O75970 = biological target: T10, MPDZ_6, O75970
MAGI1_6, Q96QZ7 = biological target: MAGI1_6, Q96QZ7
MAGI1_6, Q96QZ7, sequence (Q96QZ7 1146-1238): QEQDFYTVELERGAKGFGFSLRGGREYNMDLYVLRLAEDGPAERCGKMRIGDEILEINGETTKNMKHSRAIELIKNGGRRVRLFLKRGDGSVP

Q92614 = conditions: plain residues with an end cap or a label only (N-terminal biotin on a linker: ttds)
O75970 = conditions: plain residues with an end cap or a label only (N-terminal biotin on a linker: ttds)
Q96JY6 = conditions: plain residues with an end cap or a label only (N-terminal biotin on a linker: ttds)
Q9Y3R0 = conditions: plain residues with an end cap or a label only (N-terminal biotin on a linker: ttds)
Q5TCQ9 = conditions: plain residues with an end cap or a label only (N-terminal biotin on a linker: ttds)
O00233 = conditions: plain residues with an end cap or a label only (N-terminal biotin on a linker: ttds)
Q13009 = conditions: plain residues with an end cap or a label only (N-terminal biotin on a linker: ttds)
O60759 = conditions: plain residues with an end cap or a label only (N-terminal biotin on a linker: ttds)
Q96SB3 = conditions: plain residues with an end cap or a label only (N-terminal biotin on a linker: ttds)
Q8IUC4 = conditions: plain residues with an end cap or a label only (N-terminal biotin on a linker: ttds)
Q12923 = conditions: plain residues with an end cap or a label only (N-terminal biotin on a linker: ttds)
Q96HC4 = conditions: plain residues with an end cap or a label only (N-terminal biotin on a linker: ttds)
[1] = plain residues with an end cap or a label only (N-terminal biotin on a linker: none)
[2] = plain residues with an end cap or a label only (N-terminal biotin on a linker: ttds)

Binder	pKd (PREX2_2, Q70Z35; [2])	pKd (NHERF1_1, O14745; [2])	pKd (PARD6G, Q9BYG4; [2])	pKd (PTPN13_2, Q12923; [2])	pKd (PDZD4, Q76G19; [2])	pKd (PDLIM3, Q53GG5; [2])	pKd (APBA3_2, O96018; [2])	pKd (TJP3_2, O95049; [2])	pKd (PDZD7_2, Q9H5P4; [2])	pKd (SHANK2, Q9UPX8; [2])	pKd (MPDZ_6, O75970; [2])	pKd (MAGI1_6, Q96QZ7; [2])	pKd (GRIP2_2, Q9C0E4; [2])	pKd (RIMS1, Q86UR5; [2])	pKd (RGS3, P49796-9; [2])	pKd (RIMS2, Q9UQ26; [2])	further results
DSKPPLPPDEWV [MERS-E, K9N5R3]																	pKd (PREX2_2, Q70Z35; [1]): below the threshold; pKd (NHERF1_1, O14745; [1]): below the threshold; pKd (PARD6G, Q9BYG4; [1]): below the threshold; pKd (GRIP2_2, Q9C0E4; [1]): below the threshold; pKd (RIMS1, Q86UR5; [1]): 4.38; pKd (PTPN13_2, Q12923; [1]): 4.35; pKd (RGS3, P49796-9; [1]): 4.67; pKd (PDZD4, Q76G19; [1]): below the threshold; pKd (RIMS2, Q9UQ26; [1]): 4.39; pKd (PDLIM3, Q53GG5; [1]): below the threshold; pKd (APBA3_2, O96018; [1]): below the threshold; pKd (TJP3_2, O95049; [1]): below the threshold; pKd (PDZD7_2, Q9H5P4; [1]): below the threshold; pKd (SHANK2, Q9UPX8; [1]): below the threshold; pKd (MPDZ_6, O75970; [1]): below the threshold; pKd (MAGI1_6, Q96QZ7; [1]): 4.66
TGDTLEKFVEGL [CBP, Q92793]	below the threshold	4.09	3.82	below the threshold	below the threshold	below the threshold	3.95	3.95	below the threshold	below the threshold	below the threshold	below the threshold					pKd (Q92614): below the threshold
RRVRKLPSTTL [RPS6KA1, Q15418]		below the threshold	below the threshold	below the threshold	below the threshold	below the threshold	below the threshold	below the threshold	below the threshold		below the threshold	below the threshold	below the threshold	below the threshold	below the threshold	below the threshold	
HIVEALETDV [PBK, Q96KB5]	below the threshold	below the threshold	below the threshold	below the threshold	below the threshold	below the threshold	below the threshold	below the threshold	below the threshold	below the threshold	below the threshold	4.91	below the threshold	below the threshold	below the threshold	below the threshold	pKd (O75970): below the threshold; pKd (Q96JY6): below the threshold; pKd (Q9Y3R0): below the threshold; pKd (Q5TCQ9): below the threshold; pKd (O00233): below the threshold; pKd (Q13009): below the threshold; pKd (O60759): below the threshold; pKd (Q96SB3): below the threshold; pKd (Q8IUC4): below the threshold; pKd (Q12923): below the threshold; pKd (Q96HC4): below the threshold
RTRQRNETQV [HPV51-E6, P26554]	below the threshold	below the threshold	below the threshold	below the threshold	below the threshold	below the threshold	below the threshold	below the threshold	below the threshold	below the threshold	below the threshold	below the threshold	below the threshold	below the threshold	below the threshold	below the threshold	pKd (O75970): below the threshold; pKd (Q96JY6): below the threshold; pKd (Q9Y3R0): below the threshold; pKd (Q5TCQ9): below the threshold; pKd (O00233): below the threshold; pKd (Q13009): below the threshold; pKd (O60759): below the threshold; pKd (Q8IUC4): below the threshold; pKd (Q12923): below the threshold; pKd (Q92614): below the threshold; pKd (Q96HC4): below the threshold
SEKHFRETEV [HTLV1-TAX1, P03409]	below the threshold	below the threshold	3.93	below the threshold	below the threshold	4.12	below the threshold	below the threshold	4.05	below the threshold	below the threshold	4.41	below the threshold	below the threshold	below the threshold	below the threshold	
DEDQHTQITKV [PTEN, P60484]	below the threshold	4.46	below the threshold	3.81	below the threshold	below the threshold	below the threshold	below the threshold	below the threshold	below the threshold	below the threshold	below the threshold					
